What was measured:
[1] = target: T1, SARS-CoV-2 spike receptor binding domain (RBD) (SARS-CoV-2 Wuhan-Hu-1 (QHD43416), UniProt P0DTC2); experiment: cell-based or functional assay
[2] = target: SARS-CoV-2 spike N terminal domain (NTD) (SARS-CoV-2 Wuhan-Hu-1 (QHD43416), UniProt P0DTC2); experiment: ELISA
[3] = target: T1, SARS-CoV-2 spike receptor binding …; experiment: BLI
[4] = target: SARS-CoV-2 spike S1 subunit (SARS-CoV-2 Wuhan-Hu-1 (QHD43416), UniProt P0DTC2); experiment: ELISA

Row | Binder | NT50, plaque reduction neutralization test (PRNT), SARS-CoV-2 on Vero E6 cells [1] [µg/mL] | binding result [2] | Kd [3] [nM] | Kd [4] [nM]
1 | MD17 (scFv, V domains shown) VH: EVQLLESGGGLVQPGGSLRLSCSASGFTFSTYVMNWVRQAPGKGLEHVSGISSDGGITYYADSVKGRFTISRDNSKNTLYLQMSSLRVEDTAVYYCVKDQDSSSWYDAFDIWGQGTMVTVSS VL: DIVMTQSPSSLSASVGDRVTITCRASQSISNYLNWYQQKLGKAPKLLTYAASRLQSGVPSRFSASGSGTEFTLTISSLQPEDFATYYCQQSYTTPLTFGGGTKLEIK | 43 | no binding |  | 
2 | MD29 (scFv, V domains shown) VH: QMQLVQSGGGLVQPGGSLRLSCSASGFTFSTYVMNWVRQAPGKGPEHVSGISSDGGITYYADSVKGRFTISRDNSKNTLYLQMSSLRVEDTAVYYCVKDQDSSSWYDAFDIWGQGTMVTVSS VL: NIRLTQSPSSLSASVGDRVTITCRATQSISSYLNWYQQKPGKAPNLLIYAASSLQSGVPSRFSGSGSGTDFTLTISSLQPEDFATYYCHQTYTSPYTFGQGTKLEIK | 13 | no binding | 0.4 to 5.8 | 
3 | MD45 (scFv, V domains shown) VH: EVQLVQSGGGLVQPGGSLRLSCAASGFTVSSNYMTWVRQAPGKGLEWVSVIYSGGSTFYADSVKGRFTISRHNSKNTLYLQMNSLRAEDTAVYYCARDLSVRGGMDVWGQGTMVTVSS VL: EIVLTQSPGTLSLSPGERATLSCRASQSVNSSYLAWYQQKPGQAPRLLIYGASNRATGIPDRFSGSGSGTDFTLTISRLEPEDFAVYYCQQYGVSPEIIFGQGTRLEIK | 2.1 | no binding |  | 12.7
4 | MD67 (scFv, V domains shown) VH: EVQLVESGGGLVQPGGSLRLSCAASGFTVSSNYMTWVRQAPGKGLEWVSVIYSGGSTFYADSVKGRFTISRHNSKNTLYLQMNSLRAEDTAVYYCARDLSVRGGMDVWGQGTTVTVSS VL: not shown | 1.9 | no binding | 0.4 to 5.8 | 
5 | MD63 (scFv, V domains shown) VH: QVTLKESGGGVVQPGRSLRLSCAASGFTFSSYAMHWVRQAPGKGLEHVSAISSDGGITYFADSVKGRFTISRDNSRNTLFLQMSSLRVEDTAVYYCVKDQDSNSWYDAFDIWGRGTMVTVSS VL: not shown |  | no binding |  | 15.6
6 | MD47 (scFv, V domains shown) V domain 1: QMQLVQSGGGLVQPGGSLRLSCAASGFTFSSYAMSWVRQAPGKGLEWVSAISSGGSTYYADSVKGRFTISRDNSKNTLYLQMNSLRAEDTAVYYCAKDLVTAPSYEAFDIWGQGTMITVSS V domain 2: NFMLTQPPSVSVAPGKTARITCGGNNIGSKSVHWYQQKPGQAPVLVIYYDSDRPSGIPERFSGSNSGNTATLTISRVEAGDEADYYCQVWDSSSHHHVVFGGGTKGTVL | 13 | no binding |  | 
7 | MD62 (scFv, V domains shown) VH: EVQLVQSGGGLIQPGGSLRLSCAASGVTVSSNYMTWVRQAPGKGLEWVSLIYSGGSTYYADSVKGRFTISRDNSKNTLYLQMNSLRAEDTAVYYCARDLQYYGMDVWGQGTMVTVSS VL: AIRMTQSPSSVSASVGDRVTITCRASQDIGSWLGWYQQKPGKAPKLLIYAASSLAGGVPSRFSGSGSGTDFTLTISSLQPEDFATYYCQQANSFPLTFGGGTKLEIK | 1.6 | no binding |  | 

Reference: paper doi:10.1101/2020.05.20.106609 (bioRxiv, 2020)
